Reference: patent US20070196860

Legend:
[1] = test system: SEQ ID NO. 41, Ac-SxPGSDDDDD-NH2
[2] = test system: SEQ ID NO. 27, Ac-SxPGSFRRR-NH2
[3] = test system: SEQ ID NO. 30, Ac-ALKLSRYPSFdPSxG-NH2
[4] = test system: SEQ ID NO. 48, Ac-EEEEYIQdPSxG-NH2
[5] = test system: SEQ ID NO. 42, Ac-SxPGIYAAPFAKKK-NH2

MK2 enzyme, sequence (P49137 whole entry): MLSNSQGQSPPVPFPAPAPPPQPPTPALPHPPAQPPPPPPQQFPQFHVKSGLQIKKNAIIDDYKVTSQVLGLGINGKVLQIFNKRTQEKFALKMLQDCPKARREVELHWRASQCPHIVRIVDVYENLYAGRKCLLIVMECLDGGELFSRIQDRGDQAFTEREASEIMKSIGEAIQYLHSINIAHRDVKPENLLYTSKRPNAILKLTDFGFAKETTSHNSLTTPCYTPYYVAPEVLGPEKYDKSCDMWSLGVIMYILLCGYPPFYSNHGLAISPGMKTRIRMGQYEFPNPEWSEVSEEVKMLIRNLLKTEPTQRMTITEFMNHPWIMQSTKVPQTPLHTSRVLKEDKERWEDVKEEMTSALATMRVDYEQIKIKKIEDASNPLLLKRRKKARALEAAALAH

Erk1/2 kinase
reaction rate, PDGF-treated NIH3T3 lysate [1]: The PDGF-treated sample showed a reaction rate of 1.55 RFU/sec | reaction rate, control treated NIH3T3 lysate [1]: the control treated sample had a markedly reduced rate of 0.27 RFU/sec

MK2 enzyme
fluorescence signal at plateau; cascade reaction started by B-Raf captured from NGF-treated PC12 lysate [2]: fluorescence signals that reached a plateau at 150 minutes of incubation (3200 RFU) | fluorescence signal at plateau; cascade reaction started by ERK1/2 captured from PDGF-treated NIH3T3 lysate [2]: a fluorescence signal of 3000 RFU that reached a plateau at 335 minutes of incubation | fluorescence signal at plateau; cascade reaction started by MEK1 captured from PDGF-treated NIH3T3 lysate [2]: fluorescence signal of 3650 RFU that reached a plateau at 250 minutes of incubation | fluorescence signal at plateau; cascade reaction started by p38 MAPK captured from anisomycin treated RAW lysate [2]: fluorescence signal of 3350 RFU that reached a plateau at 60 minutes of incubation | fluorescence signal; cascade reaction started by ERK1/2 captured from control NIH3T3 lysate [2]: the control group produced fluorescence signal of 845 RFU | fluorescence signal; cascade reaction started by MEK1 captured from control NIH3T3 lysate [2]: the control group produced fluorescence signal of 1050 RFU | fluorescence signal; cascade reaction started by p38 MAPK captured from control RAW lysate [2]: the control group produced fluorescence signal of 1250 RFU

RSK
reaction rate, PMA-treated HeLa lysate [3]: The PMA-treated sample showed a reaction rate of 3.17 RFU/sec | reaction rate, control treated HeLa lysate [3]: the control treated sample had a markedly reduced rate of 0.64 RFU/sec

c-Src
reaction rate, c-Src transfected CEF lysate [4]: The c-Src transfected CEF sample showed a reaction rate of 50 RFU/sec | reaction rate, mock transfected (control) CEF lysate [4]: the control treated sample had a markedly reduced rate of 0.048 RFU/sec

p70-S6K
reaction rate, control treated MCF-7 lysate [5]: the control treated sample had a markedly reduced rate of 0.12 RFU/sec | reaction rate, insulin-treated MCF-7 lysate [5]: The insulin-treated sample showed a reaction rate of 1.13 RFU/sec
